Results taken from paper PMC5180416 (Journal of the American Chemical Society, 2012).
Where two headings read alike, the source gives them in different places. Square brackets hold non-standard residues; d marks the D form. ACPC = not defined here; Ac3c = NC1(C(=O)O)CC1

Columns and labels:
[1] = target: T1, WDR5 (WD (Trp-Asp) repeat domain 5) (UniProt P61964 1-334); test: fluorescence polarisation
[2] = target: T1, WDR5 (WD (Trp-Asp) repeat domain 5); test: fluorescence polarisation; remark: listed apart in the source

Row | Ki [1] [nM] | Ki [2] [nM] | Binder
1 | 600 |  | Ac-Val-Arg-[ACPC]-NH2 (reading uncertain) [VR-ACPC]
2 |  | 60 | Ac-[Ac3c]-Arg-Val-NH2 [ACPC-RV]
